This experiment addresses T1, c-kit, endogenous in FDC-P1 cells (mouse, UniProt P05532 25-979).
T1 construct: whole, on cells
Put plainly: co-immunoprecipitation with anti-CXCR4 from FDC-P1 whole cell lysates.

T1 sequence (P05532 25-979): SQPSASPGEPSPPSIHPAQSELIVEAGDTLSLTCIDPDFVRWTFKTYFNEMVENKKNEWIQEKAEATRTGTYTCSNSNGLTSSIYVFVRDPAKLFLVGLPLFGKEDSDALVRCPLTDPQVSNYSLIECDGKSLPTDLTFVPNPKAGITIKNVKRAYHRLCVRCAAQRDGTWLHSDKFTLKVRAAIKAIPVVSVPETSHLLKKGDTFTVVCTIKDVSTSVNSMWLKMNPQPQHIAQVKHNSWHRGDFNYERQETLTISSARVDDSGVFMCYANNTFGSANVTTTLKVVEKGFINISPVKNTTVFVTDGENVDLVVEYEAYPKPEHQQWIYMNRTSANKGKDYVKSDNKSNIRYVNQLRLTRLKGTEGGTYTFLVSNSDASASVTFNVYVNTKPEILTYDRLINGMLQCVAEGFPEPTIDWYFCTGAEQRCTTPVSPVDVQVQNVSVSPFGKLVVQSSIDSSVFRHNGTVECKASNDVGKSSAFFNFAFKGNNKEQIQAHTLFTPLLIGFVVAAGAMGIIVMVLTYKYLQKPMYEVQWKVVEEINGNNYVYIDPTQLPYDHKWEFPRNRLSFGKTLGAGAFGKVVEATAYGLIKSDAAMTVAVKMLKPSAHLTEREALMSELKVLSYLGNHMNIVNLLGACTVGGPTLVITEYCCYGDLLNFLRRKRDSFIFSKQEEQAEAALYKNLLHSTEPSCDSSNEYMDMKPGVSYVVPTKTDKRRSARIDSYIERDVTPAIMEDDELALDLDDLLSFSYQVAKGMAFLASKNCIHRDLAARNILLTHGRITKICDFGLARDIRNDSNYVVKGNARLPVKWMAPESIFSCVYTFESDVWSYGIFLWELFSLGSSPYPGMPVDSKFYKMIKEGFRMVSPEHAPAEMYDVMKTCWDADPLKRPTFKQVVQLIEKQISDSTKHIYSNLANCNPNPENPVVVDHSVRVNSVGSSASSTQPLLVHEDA

B1: CXCR4, endogenous in FDC-P1 cells (receptor, mouse, UniProt P70658 1-359, looked up)
chain: MEPISVSIYTSDNYSEEVGSGDYDSNKEPCFRDENVHFNRIFLPTIYFIIFLTGIVGNGLVILVMGYQKKLRSMTDKYRLHLSVADLLFVITLPFWAVDAMADWYFGKFLCKAVHIIYTVNLYSSVLILAFISLDRYLAIVHATNSQRPRKLLAEKAVYVGVWIPALLLTIPDFIFADVSQGDISQGDDRYICDRLYPDSLWMVVFQFQHIMVGLILPGIVILSCYCIIISKLSHSKGHQKRKALKTTVILILAFFACWLPYYVGISIDSFILLGVIKQGCDFESIVHKWISITEALAFFHCCLNPILYAFLGAKFKSSAQHALNSMSRGSSLKILSKGKRGGHSSVSTESESSSFHSS
notes: whole, on cells; Immunoprecipitated with anti-CXCR4 from whole cell lysates in the co-immunoprecipitation
B1: the binding result was “no binding”.
